Here are results for 11 molecules from US12630600B2 (MEDIMMUNE LIMITED, priority 2022, dated 2026).

The target of one assay is human glucagon receptor (human, UniProt P47871). The assay can be described thus: cell-based or functional assay.
For the next assay, the target named is human GLP-1 receptor (human, UniProt P43220). The assay can be described thus: cell-based or functional assay.

Starred links: 1 amine or outer side, 2 acyl side, 3 side chain; linkers in the order of their positions; H or OH if unused. Non-standard residues stand in square brackets, D forms with d. Groups on a side chain read outwards from the residue. No end group written: not given here. *: point of attachment. β‑dimethylGln = β-dimethylglutamine, CC(C)(CC(N)=O)[C@H](N[*:1])C(=O)[*:2]; C20 diacid = O=C(O)CCCCCCCCCCCCCCCCCCC(=O)*; C18 diacid = O=C(O)CCCCCCCCCCCCCCCCC(=O)*; γGlu = O=C(O)[C@H](CCC(=O)[*:2])N[*:1]; αMeF = C[C@](N)(Cc1ccccc1)C(=O)O; NMeQ = CN[C@@H](CCC(N)=O)C(=O)O; AEEA = NCCOCCOCC(=O)O; Aib = CC(C)(N)C(=O)O

For H[Aib]QGS[αMeF]TSDVSK[αMeF]LDSRAAKD[αMeF]VQ[Aib]IANT-NH2 (not fully specified (residue 20)) [Peptide 322], in the assay with human glucagon receptor, the “hGluc-R EC50 (pM)” value is > 24700 pM. Moreover, the “hGLP-1R EC50 (pM)” value in the assay with human GLP-1 receptor is 68.3 pM.

B1: Peptide 342 (peptide)
peptide: H[Aib]QGTFTSDYSK[αMeF]LDSRRAK([γGlu-C18 diacid])DFVQWLLE[Aib]T-OH
modifications: N-terminus assumed
SMILES: CC(C)C[C@H](NC(=O)[C@H](Cc1c[nH]c2ccccc12)NC(=O)[C@H](CCC(N)=O)NC(=O)[C@@H](NC(=O)[C@H](Cc1ccccc1)NC(=O)[C@H](CC(=O)O)NC(=O)[C@H](CCCCNC(=O)CC[C@H](NC(=O)CCCCCCCCCCCCCCCCC(=O)O)C(=O)O)NC(=O)[C@H](C)NC(=O)[C@H](CCCNC(=N)N)NC(=O)[C@H](CCCNC(=N)N)NC(=O)[C@H](CO)NC(=O)[C@H](CC(=O)O)NC(=O)[C@H](CC(C)C)NC(=O)[C@](C)(Cc1ccccc1)NC(=O)[C@H](CCCCN)NC(=O)[C@H](CO)NC(=O)[C@H](Cc1ccc(O)cc1)NC(=O)[C@H](CC(=O)O)NC(=O)[C@H](CO)NC(=O)[C@@H](NC(=O)[C@H](Cc1ccccc1)NC(=O)[C@@H](NC(=O)CNC(=O)[C@H](CCC(N)=O)NC(=O)C(C)(C)NC(=O)[C@@H](N)Cc1c[nH]cn1)[C@@H](C)O)[C@@H](C)O)C(C)C)C(=O)N[C@@H](CC(C)C)C(=O)N[C@@H](CCC(=O)O)C(=O)NC(C)(C)C(=O)N[C@H](C(=O)O)[C@@H](C)O
Take B1: in the assay with human glucagon receptor, the “hGluc-R EC50 (pM)” value stood at 4830 pM. Also, the “hGLP-1R EC50 (pM)” value with human GLP-1 receptor stood at 220 pM.

B2: Peptide 325 (peptide)
peptide: HS[NMeQ]GS[αMeF]TSDVSK[αMeF]LDSRAAK([AEEA-AEEA-γGlu-C18 diacid])D[αMeF]VQ[Aib]IANT-NH2
modifications: N-terminus assumed
SMILES: CC[C@H](C)[C@H](NC(=O)C(C)(C)NC(=O)[C@H](CCC(N)=O)NC(=O)[C@@H](NC(=O)[C@](C)(Cc1ccccc1)NC(=O)[C@H](CC(=O)O)NC(=O)[C@H](CCCCNC(=O)COCCOCCNC(=O)COCCOCCNC(=O)CC[C@H](NC(=O)CCCCCCCCCCCCCCCCC(=O)O)C(=O)O)NC(=O)[C@H](C)NC(=O)[C@H](C)NC(=O)[C@H](CCCNC(=N)N)NC(=O)[C@H](CO)NC(=O)[C@H](CC(=O)O)NC(=O)[C@H](CC(C)C)NC(=O)[C@](C)(Cc1ccccc1)NC(=O)[C@H](CCCCN)NC(=O)[C@H](CO)NC(=O)[C@@H](NC(=O)[C@H](CC(=O)O)NC(=O)[C@H](CO)NC(=O)[C@@H](NC(=O)[C@](C)(Cc1ccccc1)NC(=O)[C@H](CO)NC(=O)CNC(=O)[C@H](CCC(N)=O)N(C)C(=O)[C@H](CO)NC(=O)[C@@H](N)Cc1c[nH]cn1)[C@@H](C)O)C(C)C)C(C)C)C(=O)N[C@@H](C)C(=O)N[C@@H](CC(N)=O)C(=O)N[C@H](C(N)=O)[C@@H](C)O
For B2, the “hGluc-R EC50 (pM)” value in the assay with human glucagon receptor was > 25500 pM. Further, the “hGLP-1R EC50 (pM)” value with human GLP-1 receptor came to 929 pM.

Consider H[Aib]QGTFTSDVSK[αMeF]LDSRAAK([AEEA-AEEA-γGlu-C18 diacid])DFVQWIANT-NH2 (not fully specified) [Peptide 318], for which the “hGluc-R EC50 (pM)” value with human glucagon receptor was 12000 pM. The “hGLP-1R EC50 (pM)” value with human GLP-1 receptor was found to be 55.2 pM.

B3: Peptide 340 (peptide)
peptide: H[Aib]QGTFTSDYSK[αMeF]LDSRRAK([γGlu-C18 diacid])DFVQWLL[Aib]E-OH
modifications: N-terminus assumed
SMILES: CC(C)C[C@H](NC(=O)[C@H](Cc1c[nH]c2ccccc12)NC(=O)[C@H](CCC(N)=O)NC(=O)[C@@H](NC(=O)[C@H](Cc1ccccc1)NC(=O)[C@H](CC(=O)O)NC(=O)[C@H](CCCCNC(=O)CC[C@H](NC(=O)CCCCCCCCCCCCCCCCC(=O)O)C(=O)O)NC(=O)[C@H](C)NC(=O)[C@H](CCCNC(=N)N)NC(=O)[C@H](CCCNC(=N)N)NC(=O)[C@H](CO)NC(=O)[C@H](CC(=O)O)NC(=O)[C@H](CC(C)C)NC(=O)[C@](C)(Cc1ccccc1)NC(=O)[C@H](CCCCN)NC(=O)[C@H](CO)NC(=O)[C@H](Cc1ccc(O)cc1)NC(=O)[C@H](CC(=O)O)NC(=O)[C@H](CO)NC(=O)[C@@H](NC(=O)[C@H](Cc1ccccc1)NC(=O)[C@@H](NC(=O)CNC(=O)[C@H](CCC(N)=O)NC(=O)C(C)(C)NC(=O)[C@@H](N)Cc1c[nH]cn1)[C@@H](C)O)[C@@H](C)O)C(C)C)C(=O)N[C@@H](CC(C)C)C(=O)NC(C)(C)C(=O)N[C@@H](CCC(=O)O)C(=O)O
For B3, the “hGluc-R EC50 (pM)” value in the assay with human glucagon receptor came out at 94.7 pM. The “hGLP-1R EC50 (pM)” value with human GLP-1 receptor was 312 pM.

H[dS]QGS[αMeF]TSDVSK[αMeF]LDSRAAK([AEEA-AEEA-γGlu-C18 diacid])D[αMeF]VQ[Aib]IANT [Peptide 331]: in the assay with human glucagon receptor, the “hGluc-R EC50 (pM)” value came out at 66.6 pM. Moreover, the “hGLP-1R EC50 (pM)” value with human GLP-1 receptor is 62.6 pM.

B4: Peptide 339 (peptide)
peptide: H[Aib]QGTFTSDYSK[αMeF]LD[αMeF]RRAK([γGlu-C18 diacid])DFVQWLL[Aib]T-OH
modifications: N-terminus assumed
SMILES: CC(C)C[C@H](NC(=O)[C@H](Cc1c[nH]c2ccccc12)NC(=O)[C@H](CCC(N)=O)NC(=O)[C@@H](NC(=O)[C@H](Cc1ccccc1)NC(=O)[C@H](CC(=O)O)NC(=O)[C@H](CCCCNC(=O)CC[C@H](NC(=O)CCCCCCCCCCCCCCCCC(=O)O)C(=O)O)NC(=O)[C@H](C)NC(=O)[C@H](CCCNC(=N)N)NC(=O)[C@H](CCCNC(=N)N)NC(=O)[C@](C)(Cc1ccccc1)NC(=O)[C@H](CC(=O)O)NC(=O)[C@H](CC(C)C)NC(=O)[C@](C)(Cc1ccccc1)NC(=O)[C@H](CCCCN)NC(=O)[C@H](CO)NC(=O)[C@H](Cc1ccc(O)cc1)NC(=O)[C@H](CC(=O)O)NC(=O)[C@H](CO)NC(=O)[C@@H](NC(=O)[C@H](Cc1ccccc1)NC(=O)[C@@H](NC(=O)CNC(=O)[C@H](CCC(N)=O)NC(=O)C(C)(C)NC(=O)[C@@H](N)Cc1c[nH]cn1)[C@@H](C)O)[C@@H](C)O)C(C)C)C(=O)N[C@@H](CC(C)C)C(=O)NC(C)(C)C(=O)N[C@H](C(=O)O)[C@@H](C)O
As to B4, in the assay with human glucagon receptor, the “hGluc-R EC50 (pM)” value is 70.3 pM. Further, in the assay with human GLP-1 receptor, the “hGLP-1R EC50 (pM)” value turned out to be 312 pM.

In the case of H[Aib]QGT[αMeF]TSDVSK[αMeF]LDSRAAK([AEEA-AEEA-γGlu-C18 diacid])D[αMeF]VQ[Aib]IANT-NH2 (not fully specified) [Peptide 321], the “hGluc-R EC50 (pM)” value with human glucagon receptor amounted to 4400 pM. In the assay with human GLP-1 receptor, the “hGLP-1R EC50 (pM)” value stood at 22.6 pM.

As for H[Aib]QGTFTSDVSK[αMeF]LDSRAAK([AEEA-AEEA-γGlu-C18 diacid])DFVQ[Aib]LVAT-NH2 (not fully specified) [Peptide 315], in the assay with human glucagon receptor, the “hGluc-R EC50 (pM)” value is 5850 pM. The “hGLP-1R EC50 (pM)” value in the assay with human GLP-1 receptor is 18.1 pM.

B5: Peptide 305 (peptide)
peptide: H[Aib]HGS[αMeF]TSDVSK[αMeF]LDSRAAK([AEEA-AEEA-γGlu-γGlu-C20 diacid])D[αMeF]VQ[Aib]IANT-NH2
modifications: N-terminus assumed
SMILES: CC[C@H](C)[C@H](NC(=O)C(C)(C)NC(=O)[C@H](CCC(N)=O)NC(=O)[C@@H](NC(=O)[C@](C)(Cc1ccccc1)NC(=O)[C@H](CC(=O)O)NC(=O)[C@H](CCCCNC(=O)COCCOCCNC(=O)COCCOCCNC(=O)CC[C@H](NC(=O)CC[C@H](NC(=O)CCCCCCCCCCCCCCCCCCC(=O)O)C(=O)O)C(=O)O)NC(=O)[C@H](C)NC(=O)[C@H](C)NC(=O)[C@H](CCCNC(=N)N)NC(=O)[C@H](CO)NC(=O)[C@H](CC(=O)O)NC(=O)[C@H](CC(C)C)NC(=O)[C@](C)(Cc1ccccc1)NC(=O)[C@H](CCCCN)NC(=O)[C@H](CO)NC(=O)[C@@H](NC(=O)[C@H](CC(=O)O)NC(=O)[C@H](CO)NC(=O)[C@@H](NC(=O)[C@](C)(Cc1ccccc1)NC(=O)[C@H](CO)NC(=O)CNC(=O)[C@H](Cc1c[nH]cn1)NC(=O)C(C)(C)NC(=O)[C@@H](N)Cc1c[nH]cn1)[C@@H](C)O)C(C)C)C(C)C)C(=O)N[C@@H](C)C(=O)N[C@@H](CC(N)=O)C(=O)N[C@H](C(N)=O)[C@@H](C)O
B5: the “hGluc-R EC50 (pM)” value with human glucagon receptor turned out to be 155 pM. Besides, the “hGLP-1R EC50 (pM)” value with human GLP-1 receptor was 211 pM.

B6: Peptide 324 (peptide)
peptide: HS[β‑dimethylGln]GS[αMeF]TSDVSK[αMeF]LDSRAAK([AEEA-AEEA-γGlu-C18 diacid])D[αMeF]VQ[Aib]IANT-NH2
modifications: N-terminus assumed
SMILES: CC[C@H](C)[C@H](NC(=O)C(C)(C)NC(=O)[C@H](CCC(N)=O)NC(=O)[C@@H](NC(=O)[C@](C)(Cc1ccccc1)NC(=O)[C@H](CC(=O)O)NC(=O)[C@H](CCCCNC(=O)COCCOCCNC(=O)COCCOCCNC(=O)CC[C@H](NC(=O)CCCCCCCCCCCCCCCCC(=O)O)C(=O)O)NC(=O)[C@H](C)NC(=O)[C@H](C)NC(=O)[C@H](CCCNC(=N)N)NC(=O)[C@H](CO)NC(=O)[C@H](CC(=O)O)NC(=O)[C@H](CC(C)C)NC(=O)[C@](C)(Cc1ccccc1)NC(=O)[C@H](CCCCN)NC(=O)[C@H](CO)NC(=O)[C@@H](NC(=O)[C@H](CC(=O)O)NC(=O)[C@H](CO)NC(=O)[C@@H](NC(=O)[C@](C)(Cc1ccccc1)NC(=O)[C@H](CO)NC(=O)CNC(=O)[C@@H](NC(=O)[C@H](CO)NC(=O)[C@@H](N)Cc1c[nH]cn1)C(C)(C)CC(N)=O)[C@@H](C)O)C(C)C)C(C)C)C(=O)N[C@@H](C)C(=O)N[C@@H](CC(N)=O)C(=O)N[C@H](C(N)=O)[C@@H](C)O
Consider B6, for which the “hGluc-R EC50 (pM)” value in the assay with human glucagon receptor worked out at 1930 pM. The “hGLP-1R EC50 (pM)” value with human GLP-1 receptor turned out to be 1330 pM.
